Experimental data: article PMC4015309, “Interaction of translationally controlled tumor protein with Apaf-1 is involved in the development of chemoresistance in HeLa cells” (BMC Cancer, 2014)

T1: Full APAF-1 (residues 1-1194), His-tagged (UniProt O14727-3 1-1194)
T1 construct: Apaf-1, full length, printed length 1194 residues (residues 1-1194): CARD 1-97, CED-4 98-412, WD-40 repeats 413-1194; also called full-length Apaf-1; His-Apaf-1; source: E. coli BL21(DE3)pLysS, purified (Ni Sepharose beads); not shown: His tag, C-terminal, kept
T1 sequence (looked up): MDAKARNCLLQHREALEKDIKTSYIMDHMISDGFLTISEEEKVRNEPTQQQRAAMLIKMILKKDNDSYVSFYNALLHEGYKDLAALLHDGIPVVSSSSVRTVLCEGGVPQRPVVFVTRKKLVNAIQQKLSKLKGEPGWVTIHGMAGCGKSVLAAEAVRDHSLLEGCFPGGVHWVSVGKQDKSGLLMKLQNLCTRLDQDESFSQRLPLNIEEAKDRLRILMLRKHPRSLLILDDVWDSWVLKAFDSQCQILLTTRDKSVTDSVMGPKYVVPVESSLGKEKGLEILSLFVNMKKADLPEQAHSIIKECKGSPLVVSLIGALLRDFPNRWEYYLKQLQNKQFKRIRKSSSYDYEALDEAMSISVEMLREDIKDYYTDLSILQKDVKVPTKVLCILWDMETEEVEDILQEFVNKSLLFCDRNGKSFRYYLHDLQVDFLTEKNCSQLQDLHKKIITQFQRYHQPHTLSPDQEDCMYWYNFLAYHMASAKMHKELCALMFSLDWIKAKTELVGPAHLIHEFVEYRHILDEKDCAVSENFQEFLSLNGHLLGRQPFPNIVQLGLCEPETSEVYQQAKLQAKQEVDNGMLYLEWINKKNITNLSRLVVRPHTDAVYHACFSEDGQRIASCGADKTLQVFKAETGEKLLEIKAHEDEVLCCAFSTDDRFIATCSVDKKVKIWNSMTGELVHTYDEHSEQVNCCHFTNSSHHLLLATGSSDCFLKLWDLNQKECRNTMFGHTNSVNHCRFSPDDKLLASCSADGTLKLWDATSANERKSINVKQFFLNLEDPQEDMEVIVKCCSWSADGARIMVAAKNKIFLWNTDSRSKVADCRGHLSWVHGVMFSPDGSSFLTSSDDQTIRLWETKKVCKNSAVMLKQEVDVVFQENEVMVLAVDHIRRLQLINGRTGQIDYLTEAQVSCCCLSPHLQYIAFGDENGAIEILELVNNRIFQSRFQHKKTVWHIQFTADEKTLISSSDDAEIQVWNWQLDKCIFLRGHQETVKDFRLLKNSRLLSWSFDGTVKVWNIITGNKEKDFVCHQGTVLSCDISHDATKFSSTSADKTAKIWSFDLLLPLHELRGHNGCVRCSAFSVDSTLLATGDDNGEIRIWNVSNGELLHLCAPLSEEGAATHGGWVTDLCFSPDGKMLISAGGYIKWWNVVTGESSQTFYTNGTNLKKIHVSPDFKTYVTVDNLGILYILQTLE

T2: APAF-530 (Apaf-1 residues 1-530), His-tagged (UniProt O14727-3 1-530)
T2 construct: Apaf-1 residues 1-530; source: E. coli BL21(DE3)pLysS, purified (Ni Sepharose beads); not shown: His tag, C-terminal, kept
T2 sequence (looked up): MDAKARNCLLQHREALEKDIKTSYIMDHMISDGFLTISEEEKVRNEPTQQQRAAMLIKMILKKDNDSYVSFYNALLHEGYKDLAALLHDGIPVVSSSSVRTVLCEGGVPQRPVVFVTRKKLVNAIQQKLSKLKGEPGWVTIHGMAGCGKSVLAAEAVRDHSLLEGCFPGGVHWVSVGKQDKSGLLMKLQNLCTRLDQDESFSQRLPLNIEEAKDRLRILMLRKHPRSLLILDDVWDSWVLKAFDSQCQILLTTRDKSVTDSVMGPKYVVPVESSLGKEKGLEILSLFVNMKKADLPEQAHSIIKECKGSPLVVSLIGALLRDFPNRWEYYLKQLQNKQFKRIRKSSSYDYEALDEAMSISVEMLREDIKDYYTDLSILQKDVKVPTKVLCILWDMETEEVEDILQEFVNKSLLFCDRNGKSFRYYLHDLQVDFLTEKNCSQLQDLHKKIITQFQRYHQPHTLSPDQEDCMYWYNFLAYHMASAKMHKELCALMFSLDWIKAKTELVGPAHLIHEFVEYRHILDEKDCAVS

T3: APAF-420 (Apaf-1 residues 1-420), His-tagged (UniProt O14727-3 1-420)
T3 construct: Apaf-1 residues 1-420; source: E. coli BL21(DE3)pLysS, purified (Ni Sepharose beads); not shown: His tag, C-terminal, kept
T3 sequence (looked up): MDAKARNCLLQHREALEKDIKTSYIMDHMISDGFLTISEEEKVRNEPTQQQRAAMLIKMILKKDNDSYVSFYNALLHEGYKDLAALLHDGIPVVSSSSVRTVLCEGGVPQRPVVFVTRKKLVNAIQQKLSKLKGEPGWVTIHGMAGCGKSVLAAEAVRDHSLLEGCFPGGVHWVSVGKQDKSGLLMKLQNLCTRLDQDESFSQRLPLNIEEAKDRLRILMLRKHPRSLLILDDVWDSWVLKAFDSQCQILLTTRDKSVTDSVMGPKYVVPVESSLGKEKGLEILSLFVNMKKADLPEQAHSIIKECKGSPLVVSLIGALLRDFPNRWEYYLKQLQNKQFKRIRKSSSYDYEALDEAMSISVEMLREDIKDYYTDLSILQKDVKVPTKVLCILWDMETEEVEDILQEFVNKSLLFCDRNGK

B1: APAF-97 (Apaf-1 residues 1-97, CARD), His-tagged (domain or fragment, UniProt O14727 1-97, looked up)
chain: MDAKARNCLLQHREALEKDIKTSYIMDHMISDGFLTISEEEKVRNEPTQQQRAAMLIKMILKKDNDSYVSFYNALLHEGYKDLAALLHDGIPVVSSS
notes: Apaf-1 residues 1-97 (caspase recruitment domain, CARD); also called APF-97; CARD of Apaf-1; source: E. coli BL21(DE3)pLysS, purified (Ni Sepharose beads); not shown: His tag, C-terminal, kept
B2: TCTP-GST (GST-tagged recombinant TCTP) (natural protein, human, UniProt P13693 1-172, looked up)
chain: MIIYRDLISHDEMFSDIYKIREIADGLCLEVEGKMVSRTEGNIDDSLIGGNASAEGPEGEGTESTVITGVDIVMNHHLQETSFTKEAYKKYIKDYMKSIKGKLEEQRPERVKPFMTGAAEQIKHILANFKNYQFFIGENMNPDGMVALLDYREDGVTPYMIFFKDGLEMEKC
notes: translationally controlled tumor protein (TCTP); also called GST-tagged TCTP; TCTP-GST protein; source: E. coli, purified (GST fusion protein purification kit)

Columns and labels:
Assay in all cases: pull-down; His-tagged Apaf-1 variants or WDR immobilised on Handee spin column, incubated with TCTP-GST; eluates separated by SDS-PAGE and silver stained
Settings in all cases: both partners purified
[1] = target: B2
[2] = target: T1, Full APAF-1 (residues 1-1194), …
[3] = target: T2, APAF-530 (Apaf-1 residues 1-530), …
[4] = target: T3, APAF-420 (Apaf-1 residues 1-420), …

| Binder | binding result [1] | binding result [2] | binding result [3] | binding result [4] |
| --- | --- | --- | --- | --- |
| B1 | binds |  |  |  |
| B2 |  | binds | binds | binds |
